Results from patent US8785135B2, “Mutant G-protein coupled receptors and methods for selecting them” (Heptares Therapeutics Limited, priority 2007, dated 2014).

B1: F358A: NTR point mutant (protein, UniProt P20789 1-424, looked up, variant F358A)
Neurotensin receptor type 1: MHLNSSVPQGTPGEPDAQPFSGPQSEMEATFLALSLSNGSGNTSESDTAGPNSDLDVNTDIYSKVLVTAIYLALFVVGTVGNSVTAFTLARKKSLQSLQSTVHYHLGSLALSDLLILLLAMPVELYNFIWVHHPWAFGDAGCRGYYFLRDACTYATALNVASLSVERYLAICHPFKAKTLMSRSRTKKFISAIWLASALLAIPMLFTMGLQNRSGDGTHPGGLVCTPIVDTATVKVVIQVNTFMSFLFPMLVISILNTVIANKLTVMVHQAAEQGRVCTVGTHNGLEHSTFNMTIEPGRVQALRHGVLVLRAVVIAFVVCWLPYHVRRLMFCYISDEQWTTFLFDFYHYFYMLTNALAYVSSAINPILYNLVSANFRQVFLSTLACLCPGWRHRRKKRPTFSRKPNSMSSNHAFSTSATRETLY
B2: C386A: NTR point mutant (protein, UniProt P20789 1-424, looked up, variant C386A)
Neurotensin receptor type 1: MHLNSSVPQGTPGEPDAQPFSGPQSEMEATFLALSLSNGSGNTSESDTAGPNSDLDVNTDIYSKVLVTAIYLALFVVGTVGNSVTAFTLARKKSLQSLQSTVHYHLGSLALSDLLILLLAMPVELYNFIWVHHPWAFGDAGCRGYYFLRDACTYATALNVASLSVERYLAICHPFKAKTLMSRSRTKKFISAIWLASALLAIPMLFTMGLQNRSGDGTHPGGLVCTPIVDTATVKVVIQVNTFMSFLFPMLVISILNTVIANKLTVMVHQAAEQGRVCTVGTHNGLEHSTFNMTIEPGRVQALRHGVLVLRAVVIAFVVCWLPYHVRRLMFCYISDEQWTTFLFDFYHYFYMLTNALFYVSSAINPILYNLVSANFRQVFLSTLAALCPGWRHRRKKRPTFSRKPNSMSSNHAFSTSATRETLY
B3: H393A: NTR point mutant (protein, UniProt P20789 1-424, looked up, variant H393A)
Neurotensin receptor type 1: MHLNSSVPQGTPGEPDAQPFSGPQSEMEATFLALSLSNGSGNTSESDTAGPNSDLDVNTDIYSKVLVTAIYLALFVVGTVGNSVTAFTLARKKSLQSLQSTVHYHLGSLALSDLLILLLAMPVELYNFIWVHHPWAFGDAGCRGYYFLRDACTYATALNVASLSVERYLAICHPFKAKTLMSRSRTKKFISAIWLASALLAIPMLFTMGLQNRSGDGTHPGGLVCTPIVDTATVKVVIQVNTFMSFLFPMLVISILNTVIANKLTVMVHQAAEQGRVCTVGTHNGLEHSTFNMTIEPGRVQALRHGVLVLRAVVIAFVVCWLPYHVRRLMFCYISDEQWTTFLFDFYHYFYMLTNALFYVSSAINPILYNLVSANFRQVFLSTLACLCPGWRARRKKRPTFSRKPNSMSSNHAFSTSATRETLY
B4: R392A: NTR point mutant (protein, UniProt P20789 1-424, looked up, variant R392A)
Neurotensin receptor type 1: MHLNSSVPQGTPGEPDAQPFSGPQSEMEATFLALSLSNGSGNTSESDTAGPNSDLDVNTDIYSKVLVTAIYLALFVVGTVGNSVTAFTLARKKSLQSLQSTVHYHLGSLALSDLLILLLAMPVELYNFIWVHHPWAFGDAGCRGYYFLRDACTYATALNVASLSVERYLAICHPFKAKTLMSRSRTKKFISAIWLASALLAIPMLFTMGLQNRSGDGTHPGGLVCTPIVDTATVKVVIQVNTFMSFLFPMLVISILNTVIANKLTVMVHQAAEQGRVCTVGTHNGLEHSTFNMTIEPGRVQALRHGVLVLRAVVIAFVVCWLPYHVRRLMFCYISDEQWTTFLFDFYHYFYMLTNALFYVSSAINPILYNLVSANFRQVFLSTLACLCPGWAHRRKKRPTFSRKPNSMSSNHAFSTSATRETLY
B5: I116A: NTR point mutant (protein, UniProt P20789 1-424, looked up, variant I116A)
Neurotensin receptor type 1: MHLNSSVPQGTPGEPDAQPFSGPQSEMEATFLALSLSNGSGNTSESDTAGPNSDLDVNTDIYSKVLVTAIYLALFVVGTVGNSVTAFTLARKKSLQSLQSTVHYHLGSLALSDLLALLLAMPVELYNFIWVHHPWAFGDAGCRGYYFLRDACTYATALNVASLSVERYLAICHPFKAKTLMSRSRTKKFISAIWLASALLAIPMLFTMGLQNRSGDGTHPGGLVCTPIVDTATVKVVIQVNTFMSFLFPMLVISILNTVIANKLTVMVHQAAEQGRVCTVGTHNGLEHSTFNMTIEPGRVQALRHGVLVLRAVVIAFVVCWLPYHVRRLMFCYISDEQWTTFLFDFYHYFYMLTNALFYVSSAINPILYNLVSANFRQVFLSTLACLCPGWRHRRKKRPTFSRKPNSMSSNHAFSTSATRETLY
B6: S108A: NTR point mutant (protein, UniProt P20789 1-424, looked up, variant S108A)
Neurotensin receptor type 1: MHLNSSVPQGTPGEPDAQPFSGPQSEMEATFLALSLSNGSGNTSESDTAGPNSDLDVNTDIYSKVLVTAIYLALFVVGTVGNSVTAFTLARKKSLQSLQSTVHYHLGALALSDLLILLLAMPVELYNFIWVHHPWAFGDAGCRGYYFLRDACTYATALNVASLSVERYLAICHPFKAKTLMSRSRTKKFISAIWLASALLAIPMLFTMGLQNRSGDGTHPGGLVCTPIVDTATVKVVIQVNTFMSFLFPMLVISILNTVIANKLTVMVHQAAEQGRVCTVGTHNGLEHSTFNMTIEPGRVQALRHGVLVLRAVVIAFVVCWLPYHVRRLMFCYISDEQWTTFLFDFYHYFYMLTNALFYVSSAINPILYNLVSANFRQVFLSTLACLCPGWRHRRKKRPTFSRKPNSMSSNHAFSTSATRETLY
B7: M181A: NTR point mutant (protein, UniProt P20789 1-424, looked up, variant M181A)
Neurotensin receptor type 1: MHLNSSVPQGTPGEPDAQPFSGPQSEMEATFLALSLSNGSGNTSESDTAGPNSDLDVNTDIYSKVLVTAIYLALFVVGTVGNSVTAFTLARKKSLQSLQSTVHYHLGSLALSDLLILLLAMPVELYNFIWVHHPWAFGDAGCRGYYFLRDACTYATALNVASLSVERYLAICHPFKAKTLASRSRTKKFISAIWLASALLAIPMLFTMGLQNRSGDGTHPGGLVCTPIVDTATVKVVIQVNTFMSFLFPMLVISILNTVIANKLTVMVHQAAEQGRVCTVGTHNGLEHSTFNMTIEPGRVQALRHGVLVLRAVVIAFVVCWLPYHVRRLMFCYISDEQWTTFLFDFYHYFYMLTNALFYVSSAINPILYNLVSANFRQVFLSTLACLCPGWRHRRKKRPTFSRKPNSMSSNHAFSTSATRETLY
B8: G209A: NTR point mutant (protein, UniProt P20789 1-424, looked up, variant G209A)
Neurotensin receptor type 1: MHLNSSVPQGTPGEPDAQPFSGPQSEMEATFLALSLSNGSGNTSESDTAGPNSDLDVNTDIYSKVLVTAIYLALFVVGTVGNSVTAFTLARKKSLQSLQSTVHYHLGSLALSDLLILLLAMPVELYNFIWVHHPWAFGDAGCRGYYFLRDACTYATALNVASLSVERYLAICHPFKAKTLMSRSRTKKFISAIWLASALLAIPMLFTMALQNRSGDGTHPGGLVCTPIVDTATVKVVIQVNTFMSFLFPMLVISILNTVIANKLTVMVHQAAEQGRVCTVGTHNGLEHSTFNMTIEPGRVQALRHGVLVLRAVVIAFVVCWLPYHVRRLMFCYISDEQWTTFLFDFYHYFYMLTNALFYVSSAINPILYNLVSANFRQVFLSTLACLCPGWRHRRKKRPTFSRKPNSMSSNHAFSTSATRETLY
B9: K397A: NTR point mutant (protein, UniProt P20789 1-424, looked up, variant K397A)
Neurotensin receptor type 1: MHLNSSVPQGTPGEPDAQPFSGPQSEMEATFLALSLSNGSGNTSESDTAGPNSDLDVNTDIYSKVLVTAIYLALFVVGTVGNSVTAFTLARKKSLQSLQSTVHYHLGSLALSDLLILLLAMPVELYNFIWVHHPWAFGDAGCRGYYFLRDACTYATALNVASLSVERYLAICHPFKAKTLMSRSRTKKFISAIWLASALLAIPMLFTMGLQNRSGDGTHPGGLVCTPIVDTATVKVVIQVNTFMSFLFPMLVISILNTVIANKLTVMVHQAAEQGRVCTVGTHNGLEHSTFNMTIEPGRVQALRHGVLVLRAVVIAFVVCWLPYHVRRLMFCYISDEQWTTFLFDFYHYFYMLTNALFYVSSAINPILYNLVSANFRQVFLSTLACLCPGWRHRRKARPTFSRKPNSMSSNHAFSTSATRETLY
B10: D113A: NTR point mutant (protein, UniProt P20789 1-424, looked up, variant D113A)
Neurotensin receptor type 1: MHLNSSVPQGTPGEPDAQPFSGPQSEMEATFLALSLSNGSGNTSESDTAGPNSDLDVNTDIYSKVLVTAIYLALFVVGTVGNSVTAFTLARKKSLQSLQSTVHYHLGSLALSALLILLLAMPVELYNFIWVHHPWAFGDAGCRGYYFLRDACTYATALNVASLSVERYLAICHPFKAKTLMSRSRTKKFISAIWLASALLAIPMLFTMGLQNRSGDGTHPGGLVCTPIVDTATVKVVIQVNTFMSFLFPMLVISILNTVIANKLTVMVHQAAEQGRVCTVGTHNGLEHSTFNMTIEPGRVQALRHGVLVLRAVVIAFVVCWLPYHVRRLMFCYISDEQWTTFLFDFYHYFYMLTNALFYVSSAINPILYNLVSANFRQVFLSTLACLCPGWRHRRKKRPTFSRKPNSMSSNHAFSTSATRETLY
B11: Nag7m: NTR mutant F358A+A86L+I260A+F342A (protein)
chain: TSESDTAGPNSDLDVNTDIYSKVLVTAIYLALFVVGTVGNSVTLFTLARKKSLQSLQSTVHYHLGSLALSDLLILLLAMPVELYNFIWVHHPWAFGDAGCRGYYFLRDACTYATALNVASLSVERYLAICHPFKAKTLMSRSRTKKFISAIWLASALLAIPMLFTMGLQNRSGDGTHPGGLVCTPIVDTATVKVVIQVNTFMSFLFPMLVISILNTVAANKLTVMVHQAAEQGRVCTVGTHNGLEHSTFNMTIEPGRVQALRHGVLVLRAVVIAFVVCWLPYHVRRLMFCYISDEQWTTALFDFYHYFYMLTNALAYVSSAINPILYNLVSANFRQVFLSTLACLCPGWRHRRKKRPTFSRKPNSMSSNHAFSTSATRETLY

Test: Thermostability of NTR and mutants (3H-neurotensin binding)
Type: physicochemical
Conditions: Ligand(+) format
Protocol: FIG. 12 Flow chart showing the two different assay formats of ligand (+) and ligand (−) used to determine receptor thermostability.
• 1. 340 site-directed mutants have been made between residues 61-400 of NTR. • 2. Initially, all of these mutants were assayed for thermostability using an assay measuring ^3H-neurotensin (agonist) binding after the heating step. […] Mutants tested for thermostability by heating in the absence of the agonist were re-tested using a slightly different assay where the mutants were heated in the presence of ^3H-neurotensin (Ligand(+) format in FIG. 12). […] All of these also have increased thermostability. • 5. Preferred combinations are • a. Nag7m F358A+A86L+I260A+F342A Tm 51° C. (neurotensin bound) • b. Nag7n F358A+H103A+I260A+F342A Tm 51° C. (neurotensin bound) • Wildtype NTR has a Tm of 35° C. with neurotensin bound.

**Q.** For B1, which “thermostability, heated in the presence of 3H-neurotensin” value is on record?
**A.** Its value is “improved thermostability”.

Same assay, conditions: heated in the absence of the agonist

**Q.** Which “thermostability, 3H-neurotensin (agonist) binding after the heating step” value (shortened to “thermostability, 3H-neurotensin”) does the source give for B2 here?
**A.** The value was “small but significant increase in thermostability”.

**Q.** For B3, which “thermostability, 3H-neurotensin” value is on record?
**A.** The value was “small but significant increase in thermostability”.

**Q.** Which “thermostability, 3H-neurotensin” value does the source give for B4 here?
**A.** Its value is “small but significant increase in thermostability”.

**Q.** For B5, which “thermostability, 3H-neurotensin” value is on record?
**A.** Its value is “small but significant increase in thermostability”.

**Q.** For B6, which “thermostability, 3H-neurotensin” value is on record?
**A.** Its value is “small but significant increase in thermostability”.

**Q.** With B7 as the molecule, how does the “thermostability, 3H-neurotensin” value read?
**A.** Its value is “small but significant increase in thermostability”.

**Q.** For B8, which “thermostability, 3H-neurotensin” value is on record?
**A.** Its value is “small but significant increase in thermostability”.

**Q.** For B9, which “thermostability, 3H-neurotensin” value is on record?
**A.** The value was “small but significant increase in thermostability”.

**Q.** With B10 as the molecule, how does the “thermostability, 3H-neurotensin” value read?
**A.** The value was “small but significant increase in thermostability”.

**Q.** Which “thermostability, 3H-neurotensin” value does the source give for B1 here?
**A.** Its value is “small but significant increase in thermostability”.

Same assay, conditions: neurotensin bound

**Q.** Which Tm does the source give for B11 here?
**A.** The Tm was 51 °C.
